{"source": "paper PMC2132475", "molecular_target": "α-dystroglycan on embryonic Xenopus myotomal muscle cells (Xenopus (endogenous in embryonic Xenopus muscle cells))", "assay": "immunostaining of cells or tissue"}
{"substance": "laminin fragment E3 (domain or fragment)", "values": [{"measurement": "percent inhibition of mAb IIH6 binding (at 33 nM E3)", "value": 41, "unit": "%"}, {"measurement": "percent inhibition of mAb IIH6 binding (at 3.3 μM E3)", "value": 94, "unit": "%"}]}
